Measured values reported in US20200270319A1 (KOLON TISSUEGENE, published 2020).

Target: Recombinant human PTEN protein (human, UniProt P60483 1-403 (dog entry))
Assay: cell-based or functional assay

Sequence of Recombinant human PTEN protein (P60483 whole entry): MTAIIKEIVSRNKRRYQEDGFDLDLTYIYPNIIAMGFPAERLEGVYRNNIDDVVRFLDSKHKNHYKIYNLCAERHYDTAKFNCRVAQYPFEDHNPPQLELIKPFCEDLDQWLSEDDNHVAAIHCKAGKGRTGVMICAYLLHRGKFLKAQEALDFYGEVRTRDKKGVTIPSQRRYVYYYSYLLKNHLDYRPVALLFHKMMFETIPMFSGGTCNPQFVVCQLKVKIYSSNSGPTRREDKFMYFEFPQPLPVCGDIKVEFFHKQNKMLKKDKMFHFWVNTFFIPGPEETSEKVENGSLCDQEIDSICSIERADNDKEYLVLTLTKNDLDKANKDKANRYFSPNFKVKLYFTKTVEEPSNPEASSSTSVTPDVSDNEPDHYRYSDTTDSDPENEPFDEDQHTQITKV

Binder: RRRRRRRRHYRYVDTTDVDPENEPFDEDQHTQITKV (C-terminal amide) [TGN-3 peptide]
- IC50, in vitro PTEN activity assay (lipid phosphatase, C8-PIP3 liposome, Malachite Green): 87.1 µM
- PTEN activity remaining with 10 µM peptide, compared with positive control: 86%
